# Measurements reported in patent publication US8945359B2, “Flavin-binding glucose dehydrogenase” (Ikeda Food Research Co., Ltd., priority 2011, dated 2015).
# B1: CiGLD: purified enzyme of GLD derived from the genus Ciborinia, produced in A. oryzae NS4 carrying the CiGLD-Atsig modified gene (protein, listed as Ciborinia camelliae)
# chain: MHRFLPAFVLASLAAASQDVALTYDYVIVGAGTSGLVTAHRLSELADVTVAVIEAGESNYNNANVTNPAGYGLAFGTQIDWQYQTTVQEYGGDVTKVIRAGKSIGGTSTINGMAYTRAEDVQVDAWEALGNEGWNWANMLPYYKKSQTLQVPTEAQAALGAHYDPASNGYEGPLKVGWVNAMATDDFHTILNETYAALDVPANNDVNTGKMIGYTRYPATYDRTLNMRCDAGRAYYYPIQNRTNLHLYPNTMAQRLTWKSGASTPTAEGVEVLADGETTPYTIHASSEVIISAGALGSPLVLEHSGIGNPAILEKYNISVVVDLPTVGENLQDQTNTALGFDTSSDNVTYSAVSTYLGYPSAAQMFGSDFKTVAAEILAALPSYADKVAIASGNVTKAADLLKFFKIQYELIFSATSPVPVAELLVTPVGTTYSAEFWSLLPFSRGNIHISSATPGVAATINPNYFMLDYDMISQVRSAKYIREIFATTPLSPLVGSETTPGLDSIASAATEAEWAAWVKTAYRSNFHPVATAAMMPREIGGVVDSRLKVYGTTNVRVVDASILPMQVCGHLTSTLYAMSERAADLIKEDM
# modifications: CDS (1)..(1776); sig_peptide (1)..(57)
# notes: purified enzyme of GLD derived from the genus Ciborinia, produced in A. oryzae NS4 carrying the CiGLD-Atsig modified gene
# B2: BotGLD: purified enzyme of GLD derived from Botrytis tulipae, produced in A. oryzae NS4 carrying the BotGLD-Atsig modified gene (protein, listed as Botrytis tulipae)
# chain: MYRLLSTFALASLAAASTDSTLTYDYIVIGAGTSGLVIANRLSELNVTVAVIEAGDSGYNNPNVTNPSGYGLSFGTDIDWAYQSTNQKYAGNTSQVLRAGKIIGGTSTINGMAYTRAEDVQIDAWAAIGNDGWNWANLFPYYKKSQTLEIPTTAQVEAGAAYDASANGFDGPLKVGWLNSLEDTSNFHTTLNDTFAGLGVPSNDDVNTGRMVGYSRYPATYDRTLNVRHDAGRAYYYPIANRTNLHLYPNTMAQRLTWTSDANTPTANGVEVLSNNSSIPYTIHANSEVILSAGALASPLLLELSGIGNPSILSKHNISVVVDLPTVGENLQDQTNTGLAYNSSGNTSFSGAGTLVAYPSAAQLFGSEVQKISAHVLQSLPSYAAQVSAASGNITKAADLLKFFKIQHDLIFSTTHPVPMAEILISPSATAFSSEYWALLPFARGSIHITSSVAGTPAAINPNYFMFDWDVTSQIATAKFIRSIYAASPLSSFVGSETKPGLNKVSANATEAEWFDWVKTAYRSNFHPVSTAAMMPREIGGVVDSRLKVYGTANVRVVDASILPMQVSGHLVSTLYAVAERAADLIKEDI
# modifications: CDS (1)..(1773); sig_peptide (1)..(57)
# notes: purified enzyme of GLD derived from Botrytis tulipae, produced in A. oryzae NS4 carrying the BotGLD-Atsig modified gene
# B3: DuGLD: purified enzyme of flavin-binding GLD derived from the genus Dumontinia (Dumontinia tuberosa NBRC30254) (protein, listed as Dumontinia tuberosa)
# chain: MNHLLPAFALASLAVASPDLSLTYDYVIVGAGTSGLVIANRLSELNVTVAVIEAGDSGYNNVNVTNPAGYGLAFGTDIDWAYQSTNQKYAGNATQTLRAGKVIGGTSTINGMAYTRAEDVQIDAWAALGNDGWNWENLFPYYKKSQTLQAPTAAQAEAGATYDPSANGFDGPLKVGWLKSLANDDFHIILNDTYASLGIFANEDVNTGRMVGYNRYPVTYDETLNVRHDAGRAYYYPIANRTNLHLYPNTMAQRLTWKSGADVPTANGVEVLTNNSSIPYTISANSEVILSAGALASPLLLELSGIGNPSLLNKYNIPVVVDLPTVGENLQDQTNNGLAYTVSKDASFSGVGTLVTYPSAAQVFGSEIQNISAHVLDSLPSYAAQVSAASGNVTKAADLLEFFKIQHDLIFSTTHPVPMAEILVIPSATGFKSEYWALLPFARGNIHITSSIPGTPAAINPNYYMLDWDITSQITTAKFIRSVYATSPLSTLVGSETKPGLETLSANATEAEWSEWIKAGYRPNFHPVSTAAMMPREVGGVVDSRLKVYGTSNVRVVDASVLPMQVSGHLVSTLYAVAERAADLIKEDI
# modifications: CDS (1)..(1770); sig_peptide (1)..(57)
# How the values were obtained:
# Substrate specificity = type: biochemical; details: 333 mM
# Description: As these substrates, maltose, D-galactose, D-fructose, sorbitol, lactose, sucrose, D-xylose, D-mannose and trehalose were used. When the activity to D-glucose was defined as 100%, the relative activity to each substrate was found. These relative activities are described collectively as the substrate specificity in Table 2.
# [1] = Temperature characteristics; type: biochemical
# Method: The relative activity at each temperature was calculated when the activities at 30 and 45° C. were each defined as 100%. In this case, each sample was measured twice in the same condition. An average of the measured relative activities is collectively described in Table 3.
# [2] = substrate D-fructose, D-glucose = 100%
# [3] = substrate D-galactose, D-glucose = 100%
# [4] = substrate D-glucose (defined as 100%)
# [5] = substrate D-mannose, D-glucose = 100%
# [6] = substrate D-xylose, D-glucose = 100%
# [7] = substrate lactose, D-glucose = 100%
# [8] = substrate maltose, D-glucose = 100%
# [9] = substrate sorbitol, D-glucose = 100%
# [10] = substrate sucrose, D-glucose = 100%
# [11] = substrate trehalose, D-glucose = 100%
molecule,measurement,setting,value
B1,Relative activity,Substrate specificity; [2],0.49%
same,Relative activity,Substrate specificity; [3],10%
same,Relative activity,Substrate specificity; [4],100%
same,Relative activity,Substrate specificity; [5],23%
same,Relative activity,Substrate specificity; [6],25%
same,Relative activity,Substrate specificity; [7],0.21%
same,Relative activity,Substrate specificity; [8],6.4%
same,Relative activity,Substrate specificity; [9],0.38%
same,Relative activity,Substrate specificity; [10],0.40%
same,Relative activity,Substrate specificity; [11],20%
B2,Relative activity,Substrate specificity; [2],< 0.1%
same,Relative activity,Substrate specificity; [3],0.76%
same,Relative activity,Substrate specificity; [4],100%
same,Relative activity,Substrate specificity; [5],8.2%
same,Relative activity,Substrate specificity; [6],20%
same,Relative activity,Substrate specificity; [7],< 0.1%
same,Relative activity,Substrate specificity; [8],1.5%
same,Relative activity,Substrate specificity; [9],< 0.1%
same,Relative activity,Substrate specificity; [10],< 0.1%
same,Relative activity,Substrate specificity; [11],10%
B3,Relative activity,Substrate specificity; [2],< 0.1%
same,Relative activity,Substrate specificity; [3],0.28%
same,Relative activity,Substrate specificity; [4],100%
same,Relative activity,Substrate specificity; [5],1.7%
same,Relative activity,Substrate specificity; [6],10%
same,Relative activity,Substrate specificity; [7],< 0.1%
same,Relative activity,Substrate specificity; [8],0.54%
same,Relative activity,Substrate specificity; [9],< 0.1%
same,Relative activity,Substrate specificity; [10],< 0.1%
same,Relative activity,Substrate specificity; [11],1.0%
same,Relative activity,"[1]; 10° C., substrate 10 mM, 100% at 30° C.",60.6%
same,Relative activity,"[1]; 10° C., substrate 10 mM, 100% at 45° C.",60.1%
same,Relative activity,"[1]; 10° C., substrate 50 mM, 100% at 30° C.",56.0%
same,Relative activity,"[1]; 10° C., substrate 50 mM, 100% at 45° C.",50.5%
same,Relative activity,"[1]; 20° C., substrate 10 mM, 100% at 30° C.",81.5%
same,Relative activity,"[1]; 20° C., substrate 10 mM, 100% at 45° C.",80.7%
same,Relative activity,"[1]; 20° C., substrate 50 mM, 100% at 30° C.",77.9%
same,Relative activity,"[1]; 20° C., substrate 50 mM, 100% at 45° C.",70.3%
same,Relative activity,"[1]; 30° C., substrate 10 mM, 100% at 30° C.",100%
same,Relative activity,"[1]; 30° C., substrate 10 mM, 100% at 45° C.",99.1%
same,Relative activity,"[1]; 30° C., substrate 50 mM, 100% at 30° C.",100%
same,Relative activity,"[1]; 30° C., substrate 50 mM, 100% at 45° C.",90.2%
same,Relative activity,"[1]; 40° C., substrate 10 mM, 100% at 30° C.",108%
same,Relative activity,"[1]; 40° C., substrate 10 mM, 100% at 45° C.",107%
same,Relative activity,"[1]; 40° C., substrate 50 mM, 100% at 30° C.",109%
same,Relative activity,"[1]; 40° C., substrate 50 mM, 100% at 45° C.",98.6%
same,Relative activity,"[1]; 45° C., substrate 10 mM, 100% at 30° C.",101%
same,Relative activity,"[1]; 45° C., substrate 10 mM, 100% at 45° C.",100%
same,Relative activity,"[1]; 45° C., substrate 50 mM, 100% at 30° C.",111%
same,Relative activity,"[1]; 45° C., substrate 50 mM, 100% at 45° C.",100%
same,Relative activity,"[1]; 50° C., substrate 10 mM, 100% at 30° C.",87.5%
same,Relative activity,"[1]; 50° C., substrate 10 mM, 100% at 45° C.",86.7%
same,Relative activity,"[1]; 50° C., substrate 50 mM, 100% at 30° C.",105%
same,Relative activity,"[1]; 50° C., substrate 50 mM, 100% at 45° C.",94.4%
